Source: US20240342283A1 (SHANDONG BOAN BIOTECHNOLOGY, published 2024)

B1: RC005c (other)
CAR: EVQLVQSGAEVKKPGATVKISCKVSGYTFTDYEMHWVKQAPGKGLEWIGAIDPETGGTAYNQKFKGRATITADKSSSTAYMELSSLRSEDSAVYYCTPYYGYAMDYWGQGTLVTVSSGGGGSGGGGSGGGGSDIQLTQSPSFLSASVGDRVTITCKASQNVGTNVAWYQQKPGKAPKLLIYWASTRHTGVPSRFSGSGSGTEFTLTISSLQPEDFATYFCQQYSSYPLTFGQGTKLEIKTTTPAPRPPTPAPTIASQPLSLRPEACRPAAGGAVHTRGLDFACDIYIWAPLAGTCGVLLLSLVITLYCKRGRKKLLYIFKQPFMRPVQTTQEEDGCSCRFPEEEEGGCELRVKFSRSADAPAYKQGQNQLYNELNLGRREEYDVLDKRRGRDPEMGGKPRRKNPQEGLYNELQKDKMAEAYSEIGMKGERRRGKGHDGLYQGLSTATKDTYDALHMQALPPR
notes: Chimeric antigen receptor on electroporated Jurkat cells or primary T cells; also called RC005c (hu709 VH4VL2); hu709 VH4VL2 CAR
B2: R12 ROR1 CAR (other)
CAR: QEQKVESGGRLVTPGGSLTLSCKASGFDFSAYYMSWVRQAPGKGLEWIATIYPSSGKTYYATWVNGRFTISSDNAQNTVDLQMNSLTAADRATYFCARDSYADDGALFNIWGPGTLVTISSGGGGSGGGGSGGGGSELVLTQSPSVSAALGSPAKITCTLSSAHKTDTIDWYQQLQGEAPRYLMQVQSDGSYTKRPGVPDRFSGSSSGADRYLIIPSVQADDEADYYCGADYIGGYVFGGGTQLTVTGTTTPAPRPPTPAPTIASQPLSLRPEACRPAAGGAVHTRGLDFACDIYIWAPLAGTCGVLLLSLVITLYCKRGRKKLLYIFKQPFMRPVQTTQEEDGCSCRFPEEEEGGCELRVKFSRSADAPAYKQGQNQLYNELNLGRREEYDVLDKRRGRDPEMGGKPRRKNPQEGLYNELQKDKMAEAYSEIGMKGERRRGKGHDGLYQGLSTATKDTYDALHMQALPPR
notes: Benchmark chimeric antigen receptor on electroporated primary T cells; also called R12 CAR; Benchmark Control R12

Key:
[1] = biological target: T1, Receptor tyrosine kinase-like orphan receptor 1 (ROR1) on ROR1-positive cells (human, UniProt Q01973 30-937); experiment: cell-based or functional assay
[2] = biological target: T1, Receptor tyrosine kinase-like orphan …; experiment: cell-based or functional assay; remark: listed apart in the source
[3] = biological target: T2, Biotinylated Human ROR1 Protein, His, Avitag (Acro biosystem) (human, UniProt Q01973 30-403, biotinylated (Avitag)); experiment: flow cytometry of CAR-electroporated primary T cells stained with Biotinylated Human ROR1 Protein, His, Avitag
T2 construct: Bought reagent; not shown: His tag and Avitag
Description: To screen for CAR activity, the above-obtained T cells were electroporated with PiggyBac plasmids (shown in FIG. 3) with the CAR cassette as well as PiggyBac Transposon mRNA. CAR expression in primary T cells was confirmed by flow cytometry using Biotinylated Human ROR1 Protein, His, Avitag (Acro biosystem) (FIG. 18A).

T1 sequence (Q01973 30-937): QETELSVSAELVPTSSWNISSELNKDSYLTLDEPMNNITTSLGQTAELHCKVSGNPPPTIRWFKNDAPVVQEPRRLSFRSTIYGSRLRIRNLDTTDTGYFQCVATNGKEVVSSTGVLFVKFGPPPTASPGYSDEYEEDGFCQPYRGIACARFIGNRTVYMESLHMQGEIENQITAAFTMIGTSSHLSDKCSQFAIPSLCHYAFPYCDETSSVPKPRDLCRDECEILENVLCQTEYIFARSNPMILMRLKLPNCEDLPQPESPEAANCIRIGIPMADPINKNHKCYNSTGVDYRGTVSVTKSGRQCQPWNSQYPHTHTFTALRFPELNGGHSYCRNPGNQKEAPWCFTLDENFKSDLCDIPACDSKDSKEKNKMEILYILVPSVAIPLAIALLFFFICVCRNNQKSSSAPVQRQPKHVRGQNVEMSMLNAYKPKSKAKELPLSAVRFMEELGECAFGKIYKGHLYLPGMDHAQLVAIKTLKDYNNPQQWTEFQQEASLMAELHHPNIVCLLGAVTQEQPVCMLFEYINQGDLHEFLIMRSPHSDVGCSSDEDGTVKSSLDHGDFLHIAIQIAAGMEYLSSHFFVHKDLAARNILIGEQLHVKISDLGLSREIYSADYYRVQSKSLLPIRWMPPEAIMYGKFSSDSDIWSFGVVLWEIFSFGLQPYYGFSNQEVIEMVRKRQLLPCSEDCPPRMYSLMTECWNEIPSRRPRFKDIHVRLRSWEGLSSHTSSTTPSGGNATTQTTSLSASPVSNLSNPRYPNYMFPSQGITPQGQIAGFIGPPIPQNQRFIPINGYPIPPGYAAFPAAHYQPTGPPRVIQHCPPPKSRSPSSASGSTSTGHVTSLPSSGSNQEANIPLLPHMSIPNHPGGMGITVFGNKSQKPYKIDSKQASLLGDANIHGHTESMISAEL
T2 sequence (Q01973 30-403 limits assumed): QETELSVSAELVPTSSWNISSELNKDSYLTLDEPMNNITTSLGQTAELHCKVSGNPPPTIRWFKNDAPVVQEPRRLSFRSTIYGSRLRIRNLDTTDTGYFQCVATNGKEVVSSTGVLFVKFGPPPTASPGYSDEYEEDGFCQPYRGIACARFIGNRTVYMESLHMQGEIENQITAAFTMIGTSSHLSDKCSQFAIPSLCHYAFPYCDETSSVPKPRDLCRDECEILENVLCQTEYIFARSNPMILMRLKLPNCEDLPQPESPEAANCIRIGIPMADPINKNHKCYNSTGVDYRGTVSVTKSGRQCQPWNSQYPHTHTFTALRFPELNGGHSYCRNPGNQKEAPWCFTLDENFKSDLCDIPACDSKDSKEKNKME

Binder | IFN-gamma cytokine release (pg/mL), co-culture with MDA-MB-231, Effector to Target ratio 1:1 [1] [pg/mL] | IFN-gamma cytokine release (pg/mL), co-culture with MDA-MB-231, Effector to Target ratio 3:1 [1] [pg/mL] | Specific lysis (%) of MDA-MB-231, Effector to Target ratio 1:1 [2] [%] | Specific lysis (%) of MDA-MB-231, Effector to Target ratio 3:1 [2] [%] | CAR Positive rate [3] [%]
B1 | 14600 | 36800 | 10.6 | 32.6 | 28
B2 | 20500 | 40600 | 12.6 | 28.9 | 30.7
